Reference: article PMC5393055 (Genes & Development, 2017)

Molecular target: T1, full-length GST-SUUR (Drosophila, UniProt Q9VTE2 1-962)
T1 sequence (looked up): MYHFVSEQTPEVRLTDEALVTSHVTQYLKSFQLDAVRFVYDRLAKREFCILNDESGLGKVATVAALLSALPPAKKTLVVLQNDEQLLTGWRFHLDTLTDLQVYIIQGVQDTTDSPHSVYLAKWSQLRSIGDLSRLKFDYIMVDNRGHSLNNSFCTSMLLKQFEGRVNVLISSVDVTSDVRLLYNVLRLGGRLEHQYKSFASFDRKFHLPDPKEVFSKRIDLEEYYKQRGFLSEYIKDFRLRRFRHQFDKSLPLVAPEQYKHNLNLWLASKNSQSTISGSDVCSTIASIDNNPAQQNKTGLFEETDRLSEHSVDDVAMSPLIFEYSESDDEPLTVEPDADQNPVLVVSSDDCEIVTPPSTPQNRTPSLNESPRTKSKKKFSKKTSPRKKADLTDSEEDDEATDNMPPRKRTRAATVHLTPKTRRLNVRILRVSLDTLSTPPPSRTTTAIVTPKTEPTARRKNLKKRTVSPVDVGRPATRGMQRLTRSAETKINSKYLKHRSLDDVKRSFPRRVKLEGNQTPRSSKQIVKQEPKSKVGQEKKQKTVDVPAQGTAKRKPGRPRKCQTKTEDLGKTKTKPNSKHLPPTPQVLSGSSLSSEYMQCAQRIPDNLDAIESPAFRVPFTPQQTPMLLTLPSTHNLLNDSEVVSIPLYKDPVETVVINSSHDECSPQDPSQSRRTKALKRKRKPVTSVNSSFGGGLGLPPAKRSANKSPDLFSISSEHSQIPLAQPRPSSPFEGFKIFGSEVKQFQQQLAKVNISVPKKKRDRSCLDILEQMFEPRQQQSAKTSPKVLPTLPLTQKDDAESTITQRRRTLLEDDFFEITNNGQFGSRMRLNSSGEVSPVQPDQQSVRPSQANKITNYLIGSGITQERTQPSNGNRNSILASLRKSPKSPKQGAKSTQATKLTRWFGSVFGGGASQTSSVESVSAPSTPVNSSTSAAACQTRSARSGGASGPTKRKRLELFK
Assay: pull-down

B1: recombinant untagged full-length H1 (natural protein, Drosophila, UniProt P02255 1-256, looked up)
chain: MSDSAVATSASPVAAPPATVEKKVVQKKASGSAGTKAKKASATPSHPPTQQMVDASIKNLKERGGSSLLAIKKYITATYKCDAQKLAPFIKKYLKSAVVNGKLIQTKGKGASGSFKLSASAKKEKDPKAKSKVLSAEKKVQSKKVASKKIGVSSKKTAVGAADKKPKAKKAVATKKTAENKKTEKAKAKDAKKTGIIKSKPAATKAKVTAAKPKAVVAKASKAKPAVSAKPKKTVKKASVSATAKKPKAKTTAAKK
B1: binds.
